Consider 3 substances from paper PMC5892879, “Structures of the Mycobacterium tuberculosis GlpX protein (class II fructose-1,6-bisphosphatase): implications for the active oligomeric state, catalytic mechanism and citrate inhibition” (Acta Crystallographica. Section D, Structural Biology, 2018).

A word on the stoichiometry N: it is a count of units in the complex or per binding partner.

What all share (assay): crystal structure
Experiment [1] concerns the target Mycobacterium tuberculosis class II fructose-1,6-bisphosphatase (GlpX protein), T84A variant (Mycobacterium tuberculosis) (UniProt P9WN21).
Experiment [2] concerns the target Mycobacterium tuberculosis class II fructose-1,6-bisphosphatase (GlpX protein), T84S variant (Mycobacterium tuberculosis) (UniProt P9WN21).
In experiment [3] the target is Mycobacterium tuberculosis class II fructose-1,6-bisphosphatase (GlpX protein), wild type (Mycobacterium tuberculosis) (UniProt P9WN21).

Turning to “Mycobacterium tuberculosis class II fructose-1,6-bisphosphatase (GlpX protein), T84A variant (from UniProt P9WN21) (enzyme)”, the stoichiometry N in experiment [1] stood at 4.

In the case of “Mycobacterium tuberculosis class II fructose-1,6-bisphosphatase (GlpX protein), T84S variant (from UniProt P9WN21) (enzyme)”, in experiment [2], the stoichiometry N came out at 4.

The substance “Mycobacterium tuberculosis class II fructose-1,6-bisphosphatase (GlpX protein), wild type (from UniProt P9WN21 35-362) (enzyme)” yielded a stoichiometry N in experiment [3] of 4.
